± gives the uncertainty stated by the source.

B1: Peripheral plasma membrane protein CASK, residues 488 to 569; numbered along this chain, O14936 (parent)
chain: VRLVQFQKNTDEPMGITLKMNELNHCIVARIMHGGMIHRQGTLHVGDEIREINGISVANQTVEQLQKMLREMRGSITFKIVP

Variants of B1 are the subject of this data set. As to the kind of experiment: abundance fitness (aPCA) (normalised: wild type 0, dead -1); higher = more abundant; growth selection in yeast, the domain comes from the species named. The conditions noted are these: Homo sapiens.
As to VRLVQFQKNTDEPMGITLKMNELNHCSVARIMHGGMIHRQGTLHVGDEIREINGISVANQTVEQLQKMLREMRGSITFKIVP, the abundance fitness was -0.17 ± 0.024. VRLVQFQKNTDEPMGITLKMNELNHCVVARIMHGGMIHRQGTLHVGDEIREINGISVANQTVEQLQKMLREMRGSITFKIVP: the abundance fitness is -0.045 ± 0.023.

Take VRLVQFQKNTDEPMGITLKMNELNHCQVARIMHGGMIHRQGTLHVGDEIREINGISVANQTVEQLQKMLREMRGSITFKIVP: the abundance fitness was -0.106 ± 0.03. Under VRLVQFQKNTDEPMGITLKMNELNHCPVARIMHGGMIHRQGTLHVGDEIREINGISVANQTVEQLQKMLREMRGSITFKIVP stands -0.883 ± 0.067. Take VRLVQFQKNTDEPMGITLKMNELNHCWVARIMHGGMIHRQGTLHVGDEIREINGISVANQTVEQLQKMLREMRGSITFKIVP: the abundance fitness is -0.187 ± 0.027.

With VRLVQFQKNTDEPMGITLKMNELNHCEVARIMHGGMIHRQGTLHVGDEIREINGISVANQTVEQLQKMLREMRGSITFKIVP, the abundance fitness was -0.05 ± 0.03.

On to VRLVQFQKNTDEPMGITLKMNELNHCTVARIMHGGMIHRQGTLHVGDEIREINGISVANQTVEQLQKMLREMRGSITFKIVP, for which the abundance fitness is -0.021 ± 0.03.

Take VRLVQFQKNTDEPMGITLKMNELNHCKVARIMHGGMIHRQGTLHVGDEIREINGISVANQTVEQLQKMLREMRGSITFKIVP: the abundance fitness was -0.175 ± 0.038. Under VRLVQFQKNTDEPMGITLKMNELNHCCVARIMHGGMIHRQGTLHVGDEIREINGISVANQTVEQLQKMLREMRGSITFKIVP stands -0.16 ± 0.029. The result for VRLVQFQKNTDEPMGITLKMNELNHCDVARIMHGGMIHRQGTLHVGDEIREINGISVANQTVEQLQKMLREMRGSITFKIVP reads -1.05 ± 0.1; that for VRLVQFQKNTDEPMGITLKMNELNHCRVARIMHGGMIHRQGTLHVGDEIREINGISVANQTVEQLQKMLREMRGSITFKIVP, -0.227 ± 0.022; that for VRLVQFQKNTDEPMGITLKMNELNHCYVARIMHGGMIHRQGTLHVGDEIREINGISVANQTVEQLQKMLREMRGSITFKIVP, 0.007 ± 0.037. Consider VRLVQFQKNTDEPMGITLKMNELNHCFVARIMHGGMIHRQGTLHVGDEIREINGISVANQTVEQLQKMLREMRGSITFKIVP, for which the abundance fitness is -0.08 ± 0.037. As for VRLVQFQKNTDEPMGITLKMNELNHCMVARIMHGGMIHRQGTLHVGDEIREINGISVANQTVEQLQKMLREMRGSITFKIVP, the abundance fitness is -0.052 ± 0.03. Take VRLVQFQKNTDEPMGITLKMNELNHCAVARIMHGGMIHRQGTLHVGDEIREINGISVANQTVEQLQKMLREMRGSITFKIVP: the abundance fitness is -0.166 ± 0.025. The result for VRLVQFQKNTDEPMGITLKMNELNHEIVARIMHGGMIHRQGTLHVGDEIREINGISVANQTVEQLQKMLREMRGSITFKIVP reads -0.909 ± 0.059; that for VRLVQFQKNTDEPMGITLKMNELNHLIVARIMHGGMIHRQGTLHVGDEIREINGISVANQTVEQLQKMLREMRGSITFKIVP, -0.083 ± 0.026; that for VRLVQFQKNTDEPMGITLKMNELNHKIVARIMHGGMIHRQGTLHVGDEIREINGISVANQTVEQLQKMLREMRGSITFKIVP, -0.202 ± 0.04. Under VRLVQFQKNTDEPMGITLKMNELNHYIVARIMHGGMIHRQGTLHVGDEIREINGISVANQTVEQLQKMLREMRGSITFKIVP stands -0.07 ± 0.048; under VRLVQFQKNTDEPMGITLKMNELNHMIVARIMHGGMIHRQGTLHVGDEIREINGISVANQTVEQLQKMLREMRGSITFKIVP, -0.076 ± 0.033; under VRLVQFQKNTDEPMGITLKMNELNHDIVARIMHGGMIHRQGTLHVGDEIREINGISVANQTVEQLQKMLREMRGSITFKIVP, -0.868 ± 0.091. On to VRLVQFQKNTDEPMGITLKMNELNHSIVARIMHGGMIHRQGTLHVGDEIREINGISVANQTVEQLQKMLREMRGSITFKIVP, for which the abundance fitness is -0.732 ± 0.043. The result for VRLVQFQKNTDEPMGITLKMNELNHGIVARIMHGGMIHRQGTLHVGDEIREINGISVANQTVEQLQKMLREMRGSITFKIVP reads -0.736 ± 0.029. Under VRLVQFQKNTDEPMGITLKMNELNHQIVARIMHGGMIHRQGTLHVGDEIREINGISVANQTVEQLQKMLREMRGSITFKIVP stands -0.708 ± 0.059; under VRLVQFQKNTDEPMGITLKMNELNHIIVARIMHGGMIHRQGTLHVGDEIREINGISVANQTVEQLQKMLREMRGSITFKIVP, 0.032 ± 0.05; under VRLVQFQKNTDEPMGITLKMNELNHRIVARIMHGGMIHRQGTLHVGDEIREINGISVANQTVEQLQKMLREMRGSITFKIVP, -0.642 ± 0.029. The result for VRLVQFQKNTDEPMGITLKMNELNHPIVARIMHGGMIHRQGTLHVGDEIREINGISVANQTVEQLQKMLREMRGSITFKIVP reads 0.015 ± 0.029. Consider VRLVQFQKNTDEPMGITLKMNELNHWIVARIMHGGMIHRQGTLHVGDEIREINGISVANQTVEQLQKMLREMRGSITFKIVP, for which the abundance fitness is -0.031 ± 0.026. The result for VRLVQFQKNTDEPMGITLKMNELNHVIVARIMHGGMIHRQGTLHVGDEIREINGISVANQTVEQLQKMLREMRGSITFKIVP reads 0.015 ± 0.023; that for VRLVQFQKNTDEPMGITLKMNELNHAIVARIMHGGMIHRQGTLHVGDEIREINGISVANQTVEQLQKMLREMRGSITFKIVP, -0.067 ± 0.025. The result for VRLVQFQKNTDEPMGITLKMNELNACIVARIMHGGMIHRQGTLHVGDEIREINGISVANQTVEQLQKMLREMRGSITFKIVP reads -0.016 ± 0.024; that for VRLVQFQKNTDEPMGITLKMNELNICIVARIMHGGMIHRQGTLHVGDEIREINGISVANQTVEQLQKMLREMRGSITFKIVP, -0.073 ± 0.047; that for VRLVQFQKNTDEPMGITLKMNELNYCIVARIMHGGMIHRQGTLHVGDEIREINGISVANQTVEQLQKMLREMRGSITFKIVP, -0.102 ± 0.047.

With VRLVQFQKNTDEPMGITLKMNELNCCIVARIMHGGMIHRQGTLHVGDEIREINGISVANQTVEQLQKMLREMRGSITFKIVP, the abundance fitness was -0.013 ± 0.031.

In the case of VRLVQFQKNTDEPMGITLKMNELNPCIVARIMHGGMIHRQGTLHVGDEIREINGISVANQTVEQLQKMLREMRGSITFKIVP, the abundance fitness was -0.819 ± 0.06. The result for VRLVQFQKNTDEPMGITLKMNELNWCIVARIMHGGMIHRQGTLHVGDEIREINGISVANQTVEQLQKMLREMRGSITFKIVP reads -0.32 ± 0.031; that for VRLVQFQKNTDEPMGITLKMNELNLCIVARIMHGGMIHRQGTLHVGDEIREINGISVANQTVEQLQKMLREMRGSITFKIVP, -0.064 ± 0.025.

VRLVQFQKNTDEPMGITLKMNELNDCIVARIMHGGMIHRQGTLHVGDEIREINGISVANQTVEQLQKMLREMRGSITFKIVP: the abundance fitness is -0.163 ± 0.037. Under VRLVQFQKNTDEPMGITLKMNELNMCIVARIMHGGMIHRQGTLHVGDEIREINGISVANQTVEQLQKMLREMRGSITFKIVP stands -0.019 ± 0.031; under VRLVQFQKNTDEPMGITLKMNELNFCIVARIMHGGMIHRQGTLHVGDEIREINGISVANQTVEQLQKMLREMRGSITFKIVP, -0.194 ± 0.05. Under VRLVQFQKNTDEPMGITLKMNELNNCIVARIMHGGMIHRQGTLHVGDEIREINGISVANQTVEQLQKMLREMRGSITFKIVP stands 0.027 ± 0.036; under VRLVQFQKNTDEPMGITLKMNELNRCIVARIMHGGMIHRQGTLHVGDEIREINGISVANQTVEQLQKMLREMRGSITFKIVP, -0.016 ± 0.021. In the case of VRLVQFQKNTDEPMGITLKMNELNECIVARIMHGGMIHRQGTLHVGDEIREINGISVANQTVEQLQKMLREMRGSITFKIVP, the abundance fitness was 0.019 ± 0.027. The result for VRLVQFQKNTDEPMGITLKMNELNQCIVARIMHGGMIHRQGTLHVGDEIREINGISVANQTVEQLQKMLREMRGSITFKIVP reads 0.019 ± 0.03; that for VRLVQFQKNTDEPMGITLKMNELNTCIVARIMHGGMIHRQGTLHVGDEIREINGISVANQTVEQLQKMLREMRGSITFKIVP, -0.09 ± 0.029. Under VRLVQFQKNTDEPMGITLKMNELNGCIVARIMHGGMIHRQGTLHVGDEIREINGISVANQTVEQLQKMLREMRGSITFKIVP stands -0.046 ± 0.021.

Take VRLVQFQKNTDEPMGITLKMNELNHCICARIMHGGMIHRQGTLHVGDEIREINGISVANQTVEQLQKMLREMRGSITFKIVP: the abundance fitness is -0.272 ± 0.036. Under VRLVQFQKNTDEPMGITLKMNELNHCIKARIMHGGMIHRQGTLHVGDEIREINGISVANQTVEQLQKMLREMRGSITFKIVP stands -1.16 ± 0.12; under VRLVQFQKNTDEPMGITLKMNELNHCIPARIMHGGMIHRQGTLHVGDEIREINGISVANQTVEQLQKMLREMRGSITFKIVP, -1.08 ± 0.097; under VRLVQFQKNTDEPMGITLKMNELNHCISARIMHGGMIHRQGTLHVGDEIREINGISVANQTVEQLQKMLREMRGSITFKIVP, -0.867 ± 0.063. The result for VRLVQFQKNTDEPMGITLKMNELNHCIGARIMHGGMIHRQGTLHVGDEIREINGISVANQTVEQLQKMLREMRGSITFKIVP reads -0.992 ± 0.045.

On to VRLVQFQKNTDEPMGITLKMNELNHCIDARIMHGGMIHRQGTLHVGDEIREINGISVANQTVEQLQKMLREMRGSITFKIVP, for which the abundance fitness is -0.898 ± 0.096. The result for VRLVQFQKNTDEPMGITLKMNELNHCITARIMHGGMIHRQGTLHVGDEIREINGISVANQTVEQLQKMLREMRGSITFKIVP reads -0.651 ± 0.051; that for VRLVQFQKNTDEPMGITLKMNELNHCILARIMHGGMIHRQGTLHVGDEIREINGISVANQTVEQLQKMLREMRGSITFKIVP, -0.424 ± 0.03. Under VRLVQFQKNTDEPMGITLKMNELNHCIIARIMHGGMIHRQGTLHVGDEIREINGISVANQTVEQLQKMLREMRGSITFKIVP stands 0.03 ± 0.041. The result for VRLVQFQKNTDEPMGITLKMNELNHCIEARIMHGGMIHRQGTLHVGDEIREINGISVANQTVEQLQKMLREMRGSITFKIVP reads -1.01 ± 0.068; that for VRLVQFQKNTDEPMGITLKMNELNHCINARIMHGGMIHRQGTLHVGDEIREINGISVANQTVEQLQKMLREMRGSITFKIVP, -1.01 ± 0.25. Consider VRLVQFQKNTDEPMGITLKMNELNHCIAARIMHGGMIHRQGTLHVGDEIREINGISVANQTVEQLQKMLREMRGSITFKIVP, for which the abundance fitness was -0.479 ± 0.032. Turning to VRLVQFQKNTDEPMGITLKMNELRHCIVARIMHGGMIHRQGTLHVGDEIREINGISVANQTVEQLQKMLREMRGSITFKIVP, the abundance fitness was -0.064 ± 0.02. The result for VRLVQFQKNTDEPMGITLKMNELWHCIVARIMHGGMIHRQGTLHVGDEIREINGISVANQTVEQLQKMLREMRGSITFKIVP reads -0.467 ± 0.032; that for VRLVQFQKNTDEPMGITLKMNELVHCIVARIMHGGMIHRQGTLHVGDEIREINGISVANQTVEQLQKMLREMRGSITFKIVP, -0.7 ± 0.034; that for VRLVQFQKNTDEPMGITLKMNELPHCIVARIMHGGMIHRQGTLHVGDEIREINGISVANQTVEQLQKMLREMRGSITFKIVP, -0.922 ± 0.066. Under VRLVQFQKNTDEPMGITLKMNELSHCIVARIMHGGMIHRQGTLHVGDEIREINGISVANQTVEQLQKMLREMRGSITFKIVP stands -0.045 ± 0.023; under VRLVQFQKNTDEPMGITLKMNELLHCIVARIMHGGMIHRQGTLHVGDEIREINGISVANQTVEQLQKMLREMRGSITFKIVP, -0.427 ± 0.026; under VRLVQFQKNTDEPMGITLKMNELMHCIVARIMHGGMIHRQGTLHVGDEIREINGISVANQTVEQLQKMLREMRGSITFKIVP, -0.204 ± 0.03. The result for VRLVQFQKNTDEPMGITLKMNELYHCIVARIMHGGMIHRQGTLHVGDEIREINGISVANQTVEQLQKMLREMRGSITFKIVP reads -0.226 ± 0.043. On to VRLVQFQKNTDEPMGITLKMNELTHCIVARIMHGGMIHRQGTLHVGDEIREINGISVANQTVEQLQKMLREMRGSITFKIVP, for which the abundance fitness was -0.265 ± 0.03.

The values are drawn from the Human Domainome abundance scans (Beltran et al. 2025).
